# Data taken from US7666644B2, “Glyphosate-N-acetyltransferase (GAT) genes” (Verdia, Inc., priority 2004, dated 2010).
# Columns and labels:
# N[C@@H](CO)C(=O)O = assay: purified protein, by the assay type; conditions: other: 25 mM Hepes, pH 6.8, 10% ethylene glycol
# Experimental: (§1) GAT activity of several GAT polypeptides of the present invention was evaluated with respect to a number of amino acid substrates. The GAT polypeptide, AcCoA and amino substrate were incubated in 25 mM Hepes, pH 6.8, 10% ethylene glycol in the wells of a 96-well polystyrene plate. After 30 minutes, the reactions were stopped by the addition of 30 μl of 10 mM 5,5′-dithiobis-2-nitrobenzoate (DTNB) in 500 mM Tris, pH 7.5. After 2 minutes, absorbance was read at 412 nm in a Spectramax Plus plate reader (Molecular Devices, Sunnyvale, Calif.).
# N[C@@H](CC(=O)O)C(=O)O = assay: purified protein, by the assay type; conditions: other: 25 mM Hepes, pH 6.8, 10% ethylene glycol
# Experimental: as §1
# O=C(O)CNCP(=O)(O)O = assay: purified protein, by the assay type; conditions: other: 25 mM Hepes, pH 6.8, 10% ethylene glycol
# Experimental: as §1
# tobacco plants = assay: Herbicide spray tests of GAT expressing tobacco plants; assay type: in vivo, Nicotiana tabacum
# Experimental: Tobacco shoots generated as described in EXAMPLE 9 were excised from the explants and transferred to basal root induction (BRI) medium composed of half-strength Murashige and Skoog (MS) medium, pH 5.7, with 1.5% sucrose, 0.3% Gelrite, 0-200 uM glyphosate and 400 ug/ml Timentin. Rooted plants and axillary shoots were clonally propagated by cutting the stem and transferring it to fresh BRI medium until the desired number of clones was obtained. Rooted plants were carefully removed from the solid medium. Prior to placing the plants into small pots of soil, the roots were washed to remove any remaining Gelrite. A protective plastic cover was kept over the plants for at least one week until the plants were well established.
# To determine if GAT expressing tobacco plants could tolerate simulated field rate sprays of glyphosate, clonal lines of several events per GAT variant were tested. A typical test was set up as follows: One clone from each event was sprayed with 1 ml of solution containing the isopropylamine salt of glyphosate (Sigma P5671) and 0.125% Triton X-100, pH 6.8 such that the amount of active ingredient sprayed was equivalent to that present in commercial glyphosate products. For example, to achieve 32 oz/acre (1×) of herbicide containing 40% active ingredient (“ai”), 2.4 ul of 40% ai formulation was diluted into 1 ml water and sprayed on a plant in a 4-inch square pot (16 in^2). A mock application (0×) with surfactant only was also included. In some cases a second spray was applied 1-4 weeks later. Plants were kept in controlled growth rooms at 25° C. and 70% humidity with 16 hr light.
# Seed-grown wild type plants were also sprayed. […] All 0× plants were healthy, including the non-GAT control plants. Three weeks later all of the surviving plants were sprayed with an 8× dose.
# [1] = Kinetic parameters by continuous spectrophotometric assay in the presence of 20 mM KCl, protein quantified via UV absorbance; assay type: biochemical; conditions: templates GAT 24-5H5 or GAT 25-8H7
# Experimental: The further evolved gat genes were first selected for growth in E. coli in minimal M9 medium as described in Example 8, except that 5 mM rather than 1 mM glyphosate was used in the selection. Proteins were purified as described in Example 6 above.
# Protein concentrations were determined by UV absorbance at 205 nm. The extinction coefficient was determined by the method described by Scopes (1994; Protein Purification, Principles and Practice, Springer, NewYork) according to the formula E (mg ml^−1 cm^−1)=27+120(A280/A205)=30.5. Prior to quantitation by UV absorbance the protein solution was buffer-exchanged into 50 mM Na2SO4 using a NAP-5 column (Amersham-Pharmacia Biotech).
# Error bars represent the standard deviation of multiple assays, where available.
# [2] = assay type: physicochemical; conditions: buffer, pH 7.2
# Experimental: The half lives of several GAT polypeptides were also measured at 37.5° C. according to the following procedure. GAT polypeptides 401 (SEQ ID NO: 6), 17-15H3 (SEQ ID NO: 601), 20-8H12 (SEQ ID NO: 739), 22-13B12 (SEQ ID NO: 781), 22-15B4 (SEQ ID NO: 946) and 22-18C5 (SEQ ID NO: 795) were incubated in a matrix of 25 mM Hepes, pH 7.2, 10 mM KCl and 10% methanol (“HKM”). At various timepoints, aliquots were withdrawn and assayed in triplicate at 22° C. using the continuous spectrophotometric assay described in Example 7 using saturating concentrations of glyphosate (20 mM for 401, 5 mM for the rest) and AcCoA (167 uM). The standard error at each time point averaged about 2.9%. GAT activity was plotted as a function of incubation time and the data was fitted to a curve for exponential decay (y=e^−x), where y is enzyme activity and x is time in hours, from which half life was calculated.
molecule,measurement,setting,value
"non-native GAT polypeptide 17-15H3 (glyphosate-N-acetyltransferase), SEQ ID NO: 601 (Bacillus licheniformis DSM 13 = ATCC 14580; E119K/E65Q/E67Q/E68K/G37R/I132T/I135V/I15L/K101R/K144R/K58Q/L145I/L26I/L97I/R47G/R92K/T33S/T89S/V114A/Y130F/Y31F)",Km,N[C@@H](CO)C(=O)O,60.1 ± 1.68 MM
same,kcat,N[C@@H](CO)C(=O)O,4.03 ± 0.263 s⁻¹
same,kcat/Km,N[C@@H](CO)C(=O)O,67.3 M⁻¹ s⁻¹
same,Km,N[C@@H](CC(=O)O)C(=O)O,2.95 ± 0.162 MM
same,kcat,N[C@@H](CC(=O)O)C(=O)O,7.25 ± 0.188 s⁻¹
same,kcat/Km,N[C@@H](CC(=O)O)C(=O)O,2470 M⁻¹ s⁻¹
same,Km,O=C(O)CNCP(=O)(O)O,0.251 ± 0.0041 MM
same,kcat,O=C(O)CNCP(=O)(O)O,19.2 ± 0.46 s⁻¹
same,kcat/Km,O=C(O)CNCP(=O)(O)O,76200 M⁻¹ s⁻¹
"native GAT polypeptide 401 (glyphosate-N-acetyltransferase), wild type, SEQ ID NO: 6 (Bacillus licheniformis DSM 13 = ATCC 14580)",Km,N[C@@H](CO)C(=O)O,43 MM
same,kcat,N[C@@H](CO)C(=O)O,14.2 s⁻¹
same,kcat/Km,N[C@@H](CO)C(=O)O,330 M⁻¹ s⁻¹
same,Km,N[C@@H](CC(=O)O)C(=O)O,6.7 MM
same,kcat,N[C@@H](CC(=O)O)C(=O)O,0.402 s⁻¹
same,kcat/Km,N[C@@H](CC(=O)O)C(=O)O,60 M⁻¹ s⁻¹
same,Km,O=C(O)CNCP(=O)(O)O,1.27 ± 0.0144 MM
same,kcat,O=C(O)CNCP(=O)(O)O,0.08917 ± 0.000717 s⁻¹
same,kcat/Km,O=C(O)CNCP(=O)(O)O,70.2 M⁻¹ s⁻¹
"non-native GAT polypeptide 25-8H7 (glyphosate-N-acetyltransferase), SEQ ID NO: 907 (Bacillus licheniformis DSM 13 = ATCC 14580; E119R/E14D/E65Q/E67K/E68K/G37R/G38S/I132T/I135V/I15L/I19V/I53V/I91V/K101R/K144R/K58Q/L105M/L106I/L145I/L26I/L36T/L97I/M75V/R47G/R92K/T33S/T89S/V114A/Y130F/Y31F/Y45F)",Km,N[C@@H](CC(=O)O)C(=O)O,4.56 ± 0.112 MM
same,kcat,N[C@@H](CC(=O)O)C(=O)O,11.7 ± 0.207 s⁻¹
same,kcat/Km,N[C@@H](CC(=O)O)C(=O)O,2570 M⁻¹ s⁻¹
same,Km,O=C(O)CNCP(=O)(O)O,0.05 MM
same,kcat,O=C(O)CNCP(=O)(O)O,24.7 ± 1.09 s⁻¹
same,kcat/Km,O=C(O)CNCP(=O)(O)O,493000 M⁻¹ s⁻¹
"0—5B8: evolved GAT gene, SEQ ID NO:190 (nucleic acid, Synthetic nucleic acid sequence; 0_5B8) DNA: ATGATAGAGGTGAAACCGATTAACGCAGAGGATACCTATGAACTAAGGCATAAAATACTCAGACCAAACCAGCCGATAGAAGCGTGTATGTATGAAAGCGATTTACTTCGTGGTGCATTTCACTTAGGCGGCTTTTACAGGGGCAAACTGATTTCCATAGCTTCATTCCACCAGGCCGAGCACTCAGACCTCCAAGGCCAGAAACAGTACCAGCTCCGAGGTATGGCTACCTTGGAAGGTTATCGTGATCAGAAAGCGGGATCGAGTCTAATTAGACACGCTGAACAAATTCTTCGTAAGAGGGGGGCGGACTTGCTTTGGTGCAATGCGCGGACATCCGCCTCAGGCTACTACAAAAAGTTAGGCTTCAGCGAGCAGGGAGAGATATTTGATACGCCGCCAGTAGGACCTCACATCCTGATGTATAAAAGGCTCACA",outcome two weeks after glyphosate spray,"tobacco plants; 0.5, 2 or 4× glyphosate (1× = 32 oz/acre of 40% ai), clonally propagated events, average of 5 leaves",survived the spraying procedure without signs of glyphosate damage
same,outcome after second spray with an 8× dose,tobacco plants; 8× glyphosate three weeks later,survived
"R12G1: further evolved GAT enzyme, SEQ ID NO 917 (protein, R12G1) MIEVKPINAEDTYDLRHRVLRPNQPIEACMFESDLTRGAFHLGGFYGGKLISVASFHQAEHTELQGKKQYQLRGVATLEGYREQKAGSSLVKHAEEILRKRGADMIWCNARTSASGYYRKLGFSEQGEVFDTPPVGPHILMYKRIT",GAT activity compared with the template polypeptides,[1],extremely high GAT activities comparable to those of the template polypeptides
"R12G5: further evolved GAT enzyme, SEQ ID NO:925 (protein, R12G5) MIEVKPINAEDTYELRHRVLRPNQPIEACMFDSDLTRGAFHLGGFYGGKLISVASFHQAEHSELQGKKQYQLRGVATLEGYREQKAGSSLVKHAEEILRKRGADMIWCNARTSASGYYRKLGFSEQGEVFDTPPVGPHILMYKRIT",GAT activity compared with the template polypeptides,[1],extremely high GAT activities comparable to those of the template polypeptides
"22-13B12: GAT polypeptide, SEQ ID NO: 781 (protein, D_S00397672_22-13B12) MIEVKPINAEDTYDLRHRVLRPNQPIEACMFESDLMRGAFHLGGFYGGKLISVASFHQAEHSELQGQKQYQLRGMATLEGYREQKAGSSLVKHAEEILRKRGADILWCNARTSASGYYRKLGFSEQGEVFDTPPVGPHILMYKRIT",Half-life,[2],67 h
"R12G2: further evolved GAT enzyme, SEQ ID NO:919 (protein, R12G2) MIEVKPINAEDTYDLRHRVLRPNQPIEACMFESDLTRSAFHLGGFYGGKLISVASFHQAEHTELQGKKQYQLRGVATLEGYREQKAGSSLVKHAEEILRKRGADMIWCNARTSASGYYRKLGFSEQGEVFDTPPVGPHILMYKRIT",GAT activity compared with the template polypeptides,[1],extremely high GAT activities comparable to those of the template polypeptides
"R12G4: further evolved GAT enzyme, SEQ ID NO:923 (protein, R12G4) MIEVKPINAEDTYELRHRVLRPNQPIEACMFDSDLTRSAFHLGGFYGGKLISVASFHQAEHSELQGKKQYQLRGVATLEGYREQKAGSSLVKHAEEILRKRGADMIWCNARTSASGYYRKLGFSEQGEVFDTPPVGPHILMYKRIT",GAT activity compared with the template polypeptides,[1],extremely high GAT activities comparable to those of the template polypeptides
"R12G6: further evolved GAT enzyme, SEQ ID NO:927 (protein, R12G6) MIEVKPINAEDTYDLRHRVLRPNQPIEACMFDNDLTRSAFHLGGFYGGKLISVASFHQAEHSELQGKKQYQLRGVATLEGYREQKAGSSLVKHAEEILRKRGADMIWCNARTSASGYYRKLGFSEQGEVFDTPPVGPHILMYKRIT",GAT activity compared with the template polypeptides,[1],extremely high GAT activities comparable to those of the template polypeptides
"R12G7: further evolved GAT enzyme, SEQ ID NO:929 (protein, R12G7) MIEVKPINAEDTYDLRHRVLRPNQPIEACMFDNDLMRGAFHLGGFHGGKLISVASFHQAEHTELQGQKQYQLRGVATLEGYREQKAGSSLVKHAEEILRKRGADMLWCNARTSASGYYRKLGFSEQGEVFDTPPVGPHILMYKRIT",GAT activity compared with the template polypeptides,[1],extremely high GAT activities comparable to those of the template polypeptides
"R12G3: further evolved GAT enzyme, SEQ ID NO:921 (protein, R12G3) MIEVKPINAEDTYDLRHRVLRPNQPIEACMFDNDLTRGAFHLGGFYGGKLISVASFHQAEHSELQGKKQYQLRGVATLEGYREQKAGSSLVKHAEEILRKRGADMIWCNARTSASGYYRKLGFSEQGEVFDTPPVGPHILMYKRIT",GAT activity compared with the template polypeptides,[1],extremely high GAT activities comparable to those of the template polypeptides
"R12G8: further evolved GAT enzyme, SEQ ID NO:931 (protein, R12G8) MIEVKPINAEDTYDLRHRVLRPNQPIEACMFDNDLMRSAFHLGGFHGGKLISVASFHQAEHTELQGQKQYQLRGVATLEGYREQKAGSSLVKHAEEILRKRGADMLWCNARTSASGYYRKLGFSEQGEVFDTPPVGPHILMYKRIT",GAT activity compared with the template polypeptides,[1],extremely high GAT activities comparable to those of the template polypeptides
